Laboratory results as given in patent US20210147523A1 (TEIJIN PHARMA, published 2021).
Changes are numbered by the printed parent chain.

T1: Mutant 4 of human SPNS2 (FLAG tag inserted in extracellular loop 11) (human, UniProt Q8IVW8 1-549)
T1 construct: on HEK293 cells; also called extracellular loop 11 mutant
T1 sequence: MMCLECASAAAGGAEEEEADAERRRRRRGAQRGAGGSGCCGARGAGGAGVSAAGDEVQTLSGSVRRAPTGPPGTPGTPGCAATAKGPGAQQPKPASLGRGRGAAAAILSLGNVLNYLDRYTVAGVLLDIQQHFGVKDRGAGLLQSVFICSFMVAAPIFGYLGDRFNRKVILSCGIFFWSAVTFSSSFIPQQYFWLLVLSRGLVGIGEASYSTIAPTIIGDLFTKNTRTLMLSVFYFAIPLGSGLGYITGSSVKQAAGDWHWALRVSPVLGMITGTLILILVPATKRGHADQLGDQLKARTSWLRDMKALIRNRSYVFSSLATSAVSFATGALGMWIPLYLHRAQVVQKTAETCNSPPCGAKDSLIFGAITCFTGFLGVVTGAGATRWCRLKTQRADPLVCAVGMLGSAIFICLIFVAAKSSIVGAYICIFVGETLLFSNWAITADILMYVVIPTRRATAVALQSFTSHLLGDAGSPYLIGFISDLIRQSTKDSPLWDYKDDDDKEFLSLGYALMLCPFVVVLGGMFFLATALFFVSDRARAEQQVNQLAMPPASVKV

T2: Mutant 2 of human SPNS2 (FLAG tag inserted in extracellular loop 5) (human, UniProt Q8IVW8 1-549)
T2 construct: on HEK293 cells; also called extracellular loop 5 mutant
T2 sequence: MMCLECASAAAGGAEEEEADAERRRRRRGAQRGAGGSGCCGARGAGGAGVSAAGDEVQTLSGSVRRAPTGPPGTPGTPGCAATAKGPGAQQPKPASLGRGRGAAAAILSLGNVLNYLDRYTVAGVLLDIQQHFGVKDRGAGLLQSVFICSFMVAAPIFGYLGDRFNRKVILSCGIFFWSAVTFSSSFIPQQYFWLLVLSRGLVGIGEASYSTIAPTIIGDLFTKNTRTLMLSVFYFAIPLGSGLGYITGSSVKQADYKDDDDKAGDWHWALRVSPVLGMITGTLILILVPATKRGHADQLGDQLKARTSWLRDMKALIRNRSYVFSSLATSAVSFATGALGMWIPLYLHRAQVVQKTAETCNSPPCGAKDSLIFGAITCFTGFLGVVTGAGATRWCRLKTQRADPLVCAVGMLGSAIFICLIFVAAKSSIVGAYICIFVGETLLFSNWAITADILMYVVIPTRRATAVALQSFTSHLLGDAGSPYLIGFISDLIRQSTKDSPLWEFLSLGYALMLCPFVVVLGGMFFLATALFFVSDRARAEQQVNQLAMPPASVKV

T3: Mutant 3 of human SPNS2 (FLAG tag inserted in extracellular loop 7) (human, UniProt Q8IVW8 1-549)
T3 construct: on HEK293 cells; also called extracellular loop 7 mutant
T3 sequence: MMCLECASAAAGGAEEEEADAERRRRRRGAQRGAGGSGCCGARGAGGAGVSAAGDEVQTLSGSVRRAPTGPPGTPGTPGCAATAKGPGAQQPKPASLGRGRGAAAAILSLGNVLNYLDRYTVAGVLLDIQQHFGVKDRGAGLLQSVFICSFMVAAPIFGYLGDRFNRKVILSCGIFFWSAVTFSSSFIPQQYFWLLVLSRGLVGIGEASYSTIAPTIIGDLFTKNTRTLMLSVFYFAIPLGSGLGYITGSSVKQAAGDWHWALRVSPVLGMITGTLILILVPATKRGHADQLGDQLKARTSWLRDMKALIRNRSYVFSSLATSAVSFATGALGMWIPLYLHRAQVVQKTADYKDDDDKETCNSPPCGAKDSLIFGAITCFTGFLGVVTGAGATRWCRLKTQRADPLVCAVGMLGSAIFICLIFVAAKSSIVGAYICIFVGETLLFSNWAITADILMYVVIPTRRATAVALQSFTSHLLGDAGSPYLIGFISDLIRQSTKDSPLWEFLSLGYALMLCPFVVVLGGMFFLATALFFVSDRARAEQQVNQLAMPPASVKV

T4: mouse SPNS2 (mouse, UniProt Q91VM4 1-549)
T4 sequence: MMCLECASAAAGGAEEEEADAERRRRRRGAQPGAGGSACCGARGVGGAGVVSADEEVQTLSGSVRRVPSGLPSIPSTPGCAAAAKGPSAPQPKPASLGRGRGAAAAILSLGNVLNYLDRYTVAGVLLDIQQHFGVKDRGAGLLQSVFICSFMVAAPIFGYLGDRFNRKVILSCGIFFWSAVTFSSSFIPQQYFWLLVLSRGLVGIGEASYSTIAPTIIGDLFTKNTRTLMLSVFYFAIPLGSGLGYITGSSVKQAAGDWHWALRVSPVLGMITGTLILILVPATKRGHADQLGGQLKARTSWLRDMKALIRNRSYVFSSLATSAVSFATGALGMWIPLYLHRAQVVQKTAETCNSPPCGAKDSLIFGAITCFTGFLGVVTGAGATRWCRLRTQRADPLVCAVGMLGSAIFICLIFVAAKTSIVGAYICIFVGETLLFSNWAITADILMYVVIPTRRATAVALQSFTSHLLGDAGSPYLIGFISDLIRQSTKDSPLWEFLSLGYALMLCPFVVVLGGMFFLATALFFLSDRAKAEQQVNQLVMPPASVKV

B1: 50-0704C (antibody, IgG2b, V domains shown)
VH: EVQLVGSGGGLVQPGRSMKLSCEASGFTFSNHYMAWVRQAPTKGLEWVATISTGGGNTYYRDSVKGRFTISRDNARSTLSLQMDSLRSEDTATYYCARQDYSNYMGGFAYWGQGTLVTVSS
VL: QFVLTQPNSVSTNLGSTVKLSCTRSIGNIGNNYVNWYKQYEGRSPTTMIYRDDERPDGVPDRFSGSIDRSSNSALLTINSVQTEDEADYFCQSFSSGIFIFGGGTKLTVL
B2: 18-0211B (antibody, IgG2b, V domains shown)
VH: B1 VH with E1A, K43R, A75T, A97T, S102T
VL: B1 VL with M48L, E86G, K106T
B3: 89-1207D (antibody, IgG2b, V domains shown)
VH: B1 VH with T78I
VL: B1 VL with S80N, I98M
B4: 65-0810G (antibody, IgG2b, V domains shown)
VH: EVHLVESGGGLVQPGRSMKLSCTASGFTFNNYYMAWVRQAPTKGLEWVASISTGGGYTYYRDSVKGRFTISRDNTGNTLYLQMDSLRSEDTATYYCARCWELPYWGQGVMVTVSS
VL: QFVLTQPNSVSTNLGSTVKLSCRRSSGNIGNNYVNWYRQHEGRSPTTMIYRDDTRPDGVPNRFSGSIDRSSNSALLTINNVRPEDEAYYFCQSYSGSIYIFGGGTKLTVL
B5: 82-1109A (antibody, IgG2b, V domains shown)
VH: QVQLQQSGVELAKPGSSVKISCKASGNTFTSNYITWIKQTPGQGLEYIGYINTGSGKTYYNEKFKGKATLTADKSSSTAFMQLSSLTPDDSAVYFCASLTGVDYFDDWGQGVMVTVSS
VL: DDIVLTQSPALAPSLGQRATISCRASQSVRMSGYNLMHWYQQKPGQQPKLLIYDASKLASGIPARFSGSGSGTDFTLTIDPVQSDDIATYYCQQSKDDPYTFGAGTKLELRR
B6: 80-1104A (antibody, IgG2b, V domains shown)
VH: EVQLVETGGGLVQPGSSLKLSCSTSGFTFSETWMSWVRQAPGKGLEWVGLIKDKNSNYEANYAESVKGRFTISRDDSKRRVYLQMYTLRDQDTATYYCTSHEDFYYYSSYYFDYWGQGVMVTVSS
VL: DIVLTQSPATLSVTPGESVSLSCRASQGISTSIHWYQQKSNESPRLLIKYASQSMSGIPSRFSGSGSGTDFTLRINRVESEDFSVYYCQQSYNLPLTFGSGTKLEIKR
B7: 96-1403F (antibody, IgG2b, V domains shown)
VH: B6 VH with Q13R, S23A, E31D, G49A, Y58S, V66I, R79S, Y86N, S100R, S109G
VL: B6 VL with A9P, K39R, M55I, S56A, T72I, R74S, S91T, N93S, S100P, I106V
B8: 64-0807A (antibody, IgG2b, V domains shown)
VH: EVQVVESGGGLVQPGRSMKLSCAALGFTFRDYYMAWVRQTPTKGLEWVAAISTGGGNTYYRDSVKGRFTISRDNAKSTLYLQMDSLRSDDTATYYCARNPYGNYFDYWGQGVMVTVSS
VL: QFVLSQPNSVSTNLGSTVKLSCKRSTGNIGSNYVHWYQRHEGRSPTTLIYRDDKRPNGVPDRFSGSIDRSSNSALLTINNVQTEDEADYFCQSYSGGMYLFGGGTKLTVL
B9: 84-1111F (antibody, IgG2b, V domains shown)
VH: B8 VH with Q82K
VL: B8 VL with L48M, K106T
B10: 37-0511F (antibody, IgG2b, V domains shown)
VH: EVHLQQSGAALVRPRASVKLSCKVSGDSISRYYVHFVKQRPGQGLEWIGRIDPEDDTTKYSEKFKNRATLTADASSDTASLILSGLTSDDTATYFCSTLTGLDYWGQGVMVTVSS
VL: DIQMTQSPPVLSTSVGDRVTLRCKPSQNVHSKLDWYQQKHGEAPKLLIYYTHNLQTGIPSRFSGSGSGTDYTLTISSLQPEDVATYYCFQYYSGWTFGGGTKLEMKR
B11: 53-0707E (antibody, IgG2b, V domains shown)
VH: B10 VH with H3Q, A10E, A16T, S30T, N66K, R67K, D77N, S80Y, L83F, D89E
VL: B10 VL with P25A

Each binder was assayed against T1, Mutant 4 of human SPNS2 (FLAG tag …) (assay: flow cytometry, FLAG-insertion mutant).
Procedure: (§1) After the lipofection, the HEK 293 cells cultivated overnight were recovered from the culture dishes, and reacted with a cell staining buffer (BioLegend, 420201) containing an anti-FLAG antibody (Sigma-Aldrich, F1804) and an anti-SPNS2 antibody each in a volume of 20 μg/mL for 30 minutes at room temperature. After washing with a cell staining buffer one time, the anti-FLAG antibody was detected with an anti-mouse IgG-Alexa 647 conjugate antibody, and the anti-SPNS2 antibody was detected with an anti-rat IgG-FITC conjugate antibody with flow cytometer BD LSR Fortessa (Becton Dickinson). The binding ability to each mutant was evaluated with the ratio of the FITC-positive cell rate to the Alexa 647-positive cell rate. In Table 7, symbol (+) indicates a ratio of less than 0.1, symbol (±) indicates a ratio of 0.1 or more and less than 0.5, and symbol (−) indicate a ratio of 0.5 or more.

B1 and B2 cannot be ordered by “FITC+/Alexa 647+ cell rate ratio” value: at least 0.5 ratio for the first, at least 0.5 ratio for the second.

B3 and B4 cannot be ordered by “FITC+/Alexa 647+ cell rate ratio” value: at least 0.5 ratio for the first, at least 0.5 ratio for the second.

Going from B5 to B6, the “FITC+/Alexa 647+ cell rate ratio” value rises from under 0.1 ratio to at least 0.5 ratio.

B7 and B8 cannot be ordered by “FITC+/Alexa 647+ cell rate ratio” value: at least 0.5 ratio for the first, at least 0.5 ratio for the second.

B9 and B10 cannot be ordered by “FITC+/Alexa 647+ cell rate ratio” value: at least 0.5 ratio for the first, at least 0.5 ratio for the second.

For B11, the “FITC+/Alexa 647+ cell rate ratio” value was at least 0.5 ratio.

Each binder was assayed against T2, Mutant 2 of human SPNS2 (FLAG tag …) (assay: flow cytometry, FLAG-insertion mutant).
Procedure: as §1

B1 and B2 cannot be ordered by “FITC+/Alexa 647+ cell rate ratio” value: under 0.1 ratio for the first, under 0.1 ratio for the second.

B3 and B4 cannot be ordered by “FITC+/Alexa 647+ cell rate ratio” value: under 0.1 ratio for the first, under 0.1 ratio for the second.

B5 and B6 cannot be ordered by “FITC+/Alexa 647+ cell rate ratio” value: at least 0.5 ratio for the first, at least 0.5 ratio for the second.

B8 and B9 cannot be ordered by “FITC+/Alexa 647+ cell rate ratio” value: under 0.1 ratio for the first, under 0.1 ratio for the second.

B10 and B11 cannot be ordered by “FITC+/Alexa 647+ cell rate ratio” value: under 0.1 ratio for the first, under 0.1 ratio for the second.

These binders were tested against T3, Mutant 3 of human SPNS2 (FLAG tag …) (assay: flow cytometry, FLAG-insertion mutant).
Procedure: as §1

B1 and B2 cannot be ordered by “FITC+/Alexa 647+ cell rate ratio” value: at least 0.5 ratio for the first, at least 0.5 ratio for the second.

B3 and B4 cannot be ordered by “FITC+/Alexa 647+ cell rate ratio” value: at least 0.5 ratio for the first, at least 0.5 ratio for the second.

Compared with B5, B6 is higher in “FITC+/Alexa 647+ cell rate ratio” value: under 0.1 ratio for the first, at least 0.5 ratio for the second.

B7 and B8 cannot be ordered by “FITC+/Alexa 647+ cell rate ratio” value: at least 0.5 ratio for the first, at least 0.5 ratio for the second.

For B9, the “FITC+/Alexa 647+ cell rate ratio” value was at least 0.5 ratio.

What follows are binders tested against T4, mouse SPNS2 (assay: cell-based or functional assay).

Going from B1 to B2, the “pIC50, S1P transport inhibition (S1PR3 Ca2+ FLIPR bioassay)” value (“pIC50, S1P transport inhibition” for short) rises from 7.6 pIC50 (M) to 7.9 pIC50 (M).

B3 and B4 are the same in “pIC50, S1P transport inhibition” value: 7.6 pIC50 (M) for the first, 7.6 pIC50 (M) for the second.

Going from B6 to B7, the “pIC50, S1P transport inhibition” value falls from 7.8 pIC50 (M) to 7.3 pIC50 (M).

Compared with B8, B9 is higher in “pIC50, S1P transport inhibition” value: 7.6 pIC50 (M) for the first, 8.3 pIC50 (M) for the second.

First: B10
Second: B11
The “pIC50, S1P transport inhibition” value of the first is higher: 7.8 pIC50 (M) for the first, 7.6 pIC50 (M) for the second.
